According to the supplement of paper PMC10899765:

Experiments:
Settings in all cases: 20 nM; 72 h
[1] = tested on: MCF10A; assay: 5+ nucleoli phenotype percent effect (relative to siNT 0% and siKIF11 100%); higher = more cells with five or more nucleoli
Experimental: (§1)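 After 72 h, cells were fixed and stained with Hoechst and anti-fibrillarin, and nucleoli per nucleus were counted with CellProfiler. Values are plate-adjusted percent effect for the one-nucleolus and 5+ nucleoli phenotypes, normalised to siNT (0%) and to the positive controls siNOL11 or siKIF11 (100%), as the mean of biological triplicates. Percent viability is the nuclei count relative to siNT.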

[2] = tested on: MCF10A; assay: one-nucleolus phenotype percent effect (relative to siNT 0% and siNOL11 100%); higher = more cells with one nucleolus (ribosome biogenesis inhibition)
Experimental: as §1

[3] = tested on: MCF10A; assay: percent viability (nuclei count relative to siNT); higher = more viable cells
Experimental: as §1

UGAGGUAGUAGUUUGUGCUGUU [hsa-let-7i-5p]
5+ nucleoli phenotype percent effect [1]: 23.9%
one-nucleolus phenotype percent effect [2]: -11.8%
percent viability [3]: 16.5%

UGAGGUGACCGCAGAUGGGAA [hsa-miR-7854-3p]
5+ nucleoli phenotype percent effect [1]: -6.86%
one-nucleolus phenotype percent effect [2]: 29.8%
percent viability [3]: 14.8%

UGAGGUGGUAGGAUGUAGA [hsa-miR-6134]
5+ nucleoli phenotype percent effect [1]: -36%
one-nucleolus phenotype percent effect [2]: 40.7%
percent viability [3]: 12%

UGAGUACCGCCAUGUCUGUUGGG [hsa-miR-1911-5p]
5+ nucleoli phenotype percent effect [1]: 17.2%
one-nucleolus phenotype percent effect [2]: -20.9%
percent viability [3]: 108%

UGAGUAUUACAUGGCCAAUCUC [hsa-miR-496]
5+ nucleoli phenotype percent effect [1]: -15.6%
one-nucleolus phenotype percent effect [2]: 11.1%
percent viability [3]: 42%

UGAGUCAGCAACAUAUCCCAUG [hsa-miR-5702]
5+ nucleoli phenotype percent effect [1]: 52.5%
one-nucleolus phenotype percent effect [2]: -25.5%
percent viability [3]: 86.4%

UGAGUGACAGGGGAAAUGGGGA [hsa-miR-1236-5p]
5+ nucleoli phenotype percent effect [1]: -4.72%
one-nucleolus phenotype percent effect [2]: -0.0652%
percent viability [3]: 36.9%

UGAGUGAUUGAUAGCUAUGUUC [hsa-miR-4765]
5+ nucleoli phenotype percent effect [1]: 24.9%
one-nucleolus phenotype percent effect [2]: -19.8%
percent viability [3]: 52.9%

UGAGUGCCGGUGCCUGCCCUG [hsa-miR-1909-5p]
5+ nucleoli phenotype percent effect [1]: -15.5%
one-nucleolus phenotype percent effect [2]: 18.8%
percent viability [3]: 46.8%

UGAGUGGGGCUCCCGGGACGGCG [hsa-miR-4745-5p]
5+ nucleoli phenotype percent effect [1]: 25%
one-nucleolus phenotype percent effect [2]: -8.18%
percent viability [3]: 57.7%

UGAGUGUGUGUGUGUGAGUGUGU [hsa-miR-574-5p]
5+ nucleoli phenotype percent effect [1]: -4.79%
one-nucleolus phenotype percent effect [2]: 3.74%
percent viability [3]: 42%

UGAGUGUUGUCUACGAGGGCA [hsa-miR-3659]
5+ nucleoli phenotype percent effect [1]: 21.3%
one-nucleolus phenotype percent effect [2]: -0.683%
percent viability [3]: 59%

UGAGUUGGCCAUCUGAGUGAG [hsa-miR-571]
5+ nucleoli phenotype percent effect [1]: 5.09%
one-nucleolus phenotype percent effect [2]: -7.45%
percent viability [3]: 84.6%

UGAUAUGUUUGAUAUAUUAGGU [hsa-miR-190a]
5+ nucleoli phenotype percent effect [1]: 47.6%
one-nucleolus phenotype percent effect [2]: -13.2%
percent viability [3]: 116%

UGAUAUGUUUGAUAUUGGGUU [hsa-miR-190b]
5+ nucleoli phenotype percent effect [1]: -11.2%
one-nucleolus phenotype percent effect [2]: 21.8%
percent viability [3]: 36%

UGAUCAGGCAAAAUUGCAGACU [hsa-miR-4772-5p]
5+ nucleoli phenotype percent effect [1]: 47.2%
one-nucleolus phenotype percent effect [2]: 9.01%
percent viability [3]: 17%

UGAUCUCACCGCUGCCUCCUUC [hsa-miR-4695-3p]
5+ nucleoli phenotype percent effect [1]: 12.8%
one-nucleolus phenotype percent effect [2]: -9.6%
percent viability [3]: 93.9%

UGAUGAUACAGGUGGAGGUAG [hsa-miR-3682-3p]
5+ nucleoli phenotype percent effect [1]: -7.38%
one-nucleolus phenotype percent effect [2]: 19.3%
percent viability [3]: 31.5%

UGAUGGAGCUGGGAAUACUCUG [hsa-miR-8082]
5+ nucleoli phenotype percent effect [1]: -14.2%
one-nucleolus phenotype percent effect [2]: 21.8%
percent viability [3]: 22.3%

UGAUGGAUAAAAGACUACAUAUU [hsa-miR-3134]
5+ nucleoli phenotype percent effect [1]: -19.7%
one-nucleolus phenotype percent effect [2]: 23.3%
percent viability [3]: 27.6%

UGAUUGGUACGUCUGUGGGUAG [hsa-miR-509-3p]
5+ nucleoli phenotype percent effect [1]: -46.5%
one-nucleolus phenotype percent effect [2]: 34%
percent viability [3]: 37.8%

UGAUUGUAGCCUUUUGGAGUAGA [hsa-miR-508-3p]
5+ nucleoli phenotype percent effect [1]: -32%
one-nucleolus phenotype percent effect [2]: 23.4%
percent viability [3]: 54.1%

UGAUUGUCCAAACGCAAUUCU [hsa-miR-219-5p]
5+ nucleoli phenotype percent effect [1]: 14.5%
one-nucleolus phenotype percent effect [2]: -9.06%
percent viability [3]: 82.1%

UGAUUGUCUUCAUAUCUAGAAC [hsa-miR-4782-3p]
5+ nucleoli phenotype percent effect [1]: -13.9%
one-nucleolus phenotype percent effect [2]: -0.93%
percent viability [3]: 62%

UGAUUGUCUUCCCCCACCCUCA [hsa-miR-6766-3p]
5+ nucleoli phenotype percent effect [1]: -20.7%
one-nucleolus phenotype percent effect [2]: 1.17%
percent viability [3]: 43.1%

UGCAAAAGUAAUCACAGUUUUU [hsa-miR-548f-5p]
5+ nucleoli phenotype percent effect [1]: 23.9%
one-nucleolus phenotype percent effect [2]: -27.5%
percent viability [3]: 75.6%

UGCAAAAGUAAUUGCAGUUUUUG [hsa-miR-548aj-5p]
5+ nucleoli phenotype percent effect [1]: 4.35%
one-nucleolus phenotype percent effect [2]: -16.2%
percent viability [3]: 81.8%

UGCAAAAGUAAUUGCAGUUUUUG [hsa-miR-548g-5p]
5+ nucleoli phenotype percent effect [1]: 3.25%
one-nucleolus phenotype percent effect [2]: -17%
percent viability [3]: 73.1%

UGCAAAAGUAAUUGCAGUUUUUG [hsa-miR-548x-5p]
5+ nucleoli phenotype percent effect [1]: -24.2%
one-nucleolus phenotype percent effect [2]: -9.86%
percent viability [3]: 63%

UGCAACGAACCUGAGCCACUGA [hsa-miR-891a]
5+ nucleoli phenotype percent effect [1]: 1.67%
one-nucleolus phenotype percent effect [2]: -1.85%
percent viability [3]: 57.7%

UGCAACUUACCUGAGUCAUUGA [hsa-miR-891b]
5+ nucleoli phenotype percent effect [1]: -7.44%
one-nucleolus phenotype percent effect [2]: 1.72%
percent viability [3]: 41.4%

UGCAAGACGGAUACUGUCAUCU [hsa-miR-4696]
5+ nucleoli phenotype percent effect [1]: -15.7%
one-nucleolus phenotype percent effect [2]: -7.62%
percent viability [3]: 92.5%

UGCACAUGGCAACCUAGCUCCCA [hsa-miR-5589-3p]
5+ nucleoli phenotype percent effect [1]: -1.16%
one-nucleolus phenotype percent effect [2]: 6.29%
percent viability [3]: 45.2%

UGCACCAUGGUUGUCUGAGCAUG [hsa-miR-767-5p]
5+ nucleoli phenotype percent effect [1]: 8.28%
one-nucleolus phenotype percent effect [2]: -10.3%
percent viability [3]: 65.4%

UGCACGGCACUGGGGACACGU [hsa-miR-3177-3p]
5+ nucleoli phenotype percent effect [1]: -18%
one-nucleolus phenotype percent effect [2]: 33.1%
percent viability [3]: 20.3%

UGCAGCUCUGGUGGAAAAUGGAG [hsa-miR-4660]
5+ nucleoli phenotype percent effect [1]: -12.2%
one-nucleolus phenotype percent effect [2]: 1.97%
percent viability [3]: 43.5%

UGCAGGACCAAGAUGAGCCCU [hsa-miR-1286]
5+ nucleoli phenotype percent effect [1]: 1.93%
one-nucleolus phenotype percent effect [2]: 5.46%
percent viability [3]: 35.9%

UGCAGGGGUCGGGUGGGCCAGG [hsa-miR-6722-3p]
5+ nucleoli phenotype percent effect [1]: -25.2%
one-nucleolus phenotype percent effect [2]: 9%
percent viability [3]: 45.7%

UGCAUCACAGCCUUUGGCCCUAG [hsa-miR-7112-3p]
5+ nucleoli phenotype percent effect [1]: 45.4%
one-nucleolus phenotype percent effect [2]: -28%
percent viability [3]: 45.8%

UGCAUCAGGCCAGAAGACAUGAG [hsa-miR-4711-5p]
5+ nucleoli phenotype percent effect [1]: -36.8%
one-nucleolus phenotype percent effect [2]: 12.6%
percent viability [3]: 23.9%

UGCAUGACCCUUCCCUCCCCAC [hsa-miR-6797-3p]
5+ nucleoli phenotype percent effect [1]: -8.08%
one-nucleolus phenotype percent effect [2]: 1.95%
percent viability [3]: 31.8%

UGCCAACCGUCAGAGCCCAGA [hsa-miR-5189-3p]
5+ nucleoli phenotype percent effect [1]: -12%
one-nucleolus phenotype percent effect [2]: -1.7%
percent viability [3]: 59.9%

UGCCCAUGCCAUACUUUUGCCUCA [hsa-miR-4641]
5+ nucleoli phenotype percent effect [1]: 7.52%
one-nucleolus phenotype percent effect [2]: 5.53%
percent viability [3]: 78.6%

UGCCCCAACAAGGAAGGACAAG [hsa-miR-5699-5p]
5+ nucleoli phenotype percent effect [1]: 43.5%
one-nucleolus phenotype percent effect [2]: -18.9%
percent viability [3]: 43.1%

UGCCCCACCUGCUGACCACCCUC [hsa-miR-4758-3p]
5+ nucleoli phenotype percent effect [1]: 31.8%
one-nucleolus phenotype percent effect [2]: -20.9%
percent viability [3]: 76.4%

UGCCCCAUCUGUGCCCUGGGUAGGA [hsa-miR-3189-5p]
5+ nucleoli phenotype percent effect [1]: 42.8%
one-nucleolus phenotype percent effect [2]: 1.04%
percent viability [3]: 52.5%

UGCCCUAAAUGCCCCUUCUGGC [hsa-miR-18b-3p]
5+ nucleoli phenotype percent effect [1]: -9.28%
one-nucleolus phenotype percent effect [2]: -2.3%
percent viability [3]: 98.8%

UGCCCUCCUUUCUUCCCUC [hsa-miR-4290]
5+ nucleoli phenotype percent effect [1]: -8.55%
one-nucleolus phenotype percent effect [2]: -1.5%
percent viability [3]: 21.6%

UGCCCUGAGACUUUUGCUC [hsa-miR-7976]
5+ nucleoli phenotype percent effect [1]: -8.65%
one-nucleolus phenotype percent effect [2]: 17.4%
percent viability [3]: 40.8%

UGCCCUGCAUGGUGUCCCCACAG [hsa-miR-6799-3p]
5+ nucleoli phenotype percent effect [1]: -1.27%
one-nucleolus phenotype percent effect [2]: 6.43%
percent viability [3]: 41.1%

UGCCCUGCCUGUUUUCUCCUUU [hsa-miR-3173-5p]
5+ nucleoli phenotype percent effect [1]: 35.2%
one-nucleolus phenotype percent effect [2]: -24.3%
percent viability [3]: 148%

UGCCCUUAAAGGUGAACCCAGU [hsa-miR-938]
5+ nucleoli phenotype percent effect [1]: 6.12%
one-nucleolus phenotype percent effect [2]: 6.19%
percent viability [3]: 57.4%

UGCCCUUCUCUCCUCCUGCCU [hsa-miR-6886-3p]
5+ nucleoli phenotype percent effect [1]: -2.46%
one-nucleolus phenotype percent effect [2]: -6.37%
percent viability [3]: 35.2%

UGCCGCCCUCUCGCUGCUCUAG [hsa-miR-4632-3p]
5+ nucleoli phenotype percent effect [1]: -6.54%
one-nucleolus phenotype percent effect [2]: 7.5%
percent viability [3]: 64.2%

UGCCUACUGAGCUGAAACACAG [hsa-miR-24-2-5p]
5+ nucleoli phenotype percent effect [1]: -9.36%
one-nucleolus phenotype percent effect [2]: 7.59%
percent viability [3]: 46.7%

UGCCUACUGAGCUGAUAUCAGU [hsa-miR-24-1-5p]
5+ nucleoli phenotype percent effect [1]: -18%
one-nucleolus phenotype percent effect [2]: 3.46%
percent viability [3]: 49.2%

UGCCUAGGCUGAGACUGCAGUG [hsa-miR-3135a]
5+ nucleoli phenotype percent effect [1]: 1.84%
one-nucleolus phenotype percent effect [2]: 2.6%
percent viability [3]: 25.7%

UGCCUCCCUGACAUUCCACAG [hsa-miR-6778-3p]
5+ nucleoli phenotype percent effect [1]: -21%
one-nucleolus phenotype percent effect [2]: 10.1%
percent viability [3]: 7.57%

UGCCUCCUCCGUGGCCUCAG [hsa-miR-6829-3p]
5+ nucleoli phenotype percent effect [1]: -1.77%
one-nucleolus phenotype percent effect [2]: 0.866%
percent viability [3]: 22.7%
